Each block holds one binder with its values, some of them ahead of it.
Tests used:
Assay in all cases: two-hybrid library CCmax;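 further: natural log of median RNA to DNA barcode read ratio; higher means stronger binding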
[1] = biological target: T1, 4H32-AA
T1 chain: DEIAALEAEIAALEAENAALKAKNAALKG

[2] = biological target: T2, 4H483-AA; conditions: mean of both orientations
T2 chain: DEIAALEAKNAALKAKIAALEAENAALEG

[3] = biological target: T3, 4H432-AA; conditions: mean of both orientations
T3 chain: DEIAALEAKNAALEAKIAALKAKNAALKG

[4] = biological target: T4, 4H3595-AA; conditions: mean of both orientations
T4 chain: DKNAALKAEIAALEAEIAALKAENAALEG

[5] = biological target: 4H_GCN4
[6] = biological target: T5, 4H3619-AA; conditions: mean of both orientations
T5 chain: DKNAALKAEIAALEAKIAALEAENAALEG

[7] = biological target: T6, 4H341-AA; conditions: mean of both orientations
T6 chain: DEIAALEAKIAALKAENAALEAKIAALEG

[8] = biological target: T7, 4H446-AA; conditions: mean of both orientations
T7 chain: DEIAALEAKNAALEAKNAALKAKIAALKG

[9] = biological target: T8, 4H3974-AA; conditions: mean of both orientations
T8 chain: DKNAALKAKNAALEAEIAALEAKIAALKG

[10] = biological target: T9, 4H510-AA; conditions: mean of both orientations
T9 chain: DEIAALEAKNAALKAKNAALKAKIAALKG

[11] = biological target: T10, 4H3939-AA; conditions: mean of both orientations
T10 chain: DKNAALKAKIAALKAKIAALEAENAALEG

[12] = biological target: T11, 4H63-AA; conditions: mean of both orientations
T11 chain: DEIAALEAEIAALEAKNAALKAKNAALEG

[13] = biological target: T12, 4H324-AA; conditions: mean of both orientations
T12 chain: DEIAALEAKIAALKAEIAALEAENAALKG

[14] = biological target: T13, 4H3969-AA; conditions: mean of both orientations
T13 chain: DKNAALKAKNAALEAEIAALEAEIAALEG

[15] = biological target: GCN2_T; conditions: mean of both orientations
[16] = biological target: T14, 4H3777-AA; conditions: mean of both orientations
T14 chain: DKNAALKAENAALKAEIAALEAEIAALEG

[17] = biological target: T15, 4H4038-AA; conditions: mean of both orientations
T15 chain: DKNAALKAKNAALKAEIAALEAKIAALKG

[18] = biological target: T16, 4H3414-AA; conditions: mean of both orientations
T16 chain: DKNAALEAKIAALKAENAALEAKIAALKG

[19] = biological target: T17, 4H3129-AA; conditions: mean of both orientations
T17 chain: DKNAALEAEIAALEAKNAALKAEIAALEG

[20] = biological target: T18, 4H337-AA; conditions: mean of both orientations
T18 chain: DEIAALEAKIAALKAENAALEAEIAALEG

[21] = biological target: T19, 4H3449-AA; conditions: mean of both orientations
T19 chain: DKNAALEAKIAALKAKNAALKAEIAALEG

[22] = biological target: T20, 4H380-AA; conditions: mean of both orientations
T20 chain: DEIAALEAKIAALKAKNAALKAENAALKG

[23] = biological target: T21, 4H3587-AA
T21 chain: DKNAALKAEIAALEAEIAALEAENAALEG

[24] = biological target: T22, 4H3629-AA; conditions: mean of both orientations
T22 chain: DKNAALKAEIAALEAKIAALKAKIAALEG

[25] = biological target: T23, 4H_BCR; conditions: mean of both orientations
T23 chain: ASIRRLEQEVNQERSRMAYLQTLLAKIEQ

[26] = biological target: T24, O14-AA; conditions: mean of both orientations
T24 chain: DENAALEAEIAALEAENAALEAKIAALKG

[27] = biological target: T25, 4H_APH; conditions: mean of both orientations
T25 chain: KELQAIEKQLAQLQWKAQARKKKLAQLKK

[28] = biological target: T26, 4H3590-AA; conditions: mean of both orientations
T26 chain: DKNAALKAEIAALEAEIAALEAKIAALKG

[29] = biological target: T27, 4H3094-AA; conditions: mean of both orientations
T27 chain: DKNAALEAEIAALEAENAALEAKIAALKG

[30] = biological target: T28, O11-AA; conditions: mean of both orientations
T28 chain: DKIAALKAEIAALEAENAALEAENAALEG

[31] = biological target: T29, 4H3625-AA; conditions: mean of both orientations
T29 chain: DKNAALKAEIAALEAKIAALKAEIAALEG

[32] = biological target: T30, 4H384-AA; conditions: mean of both orientations
T30 chain: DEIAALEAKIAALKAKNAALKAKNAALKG

[33] = biological target: T31, 4H3915-AA; conditions: mean of both orientations
T31 chain: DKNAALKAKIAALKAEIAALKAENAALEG

[34] = biological target: T32, 4H43-AA; conditions: mean of both orientations
T32 chain: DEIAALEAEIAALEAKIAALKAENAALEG

[35] = biological target: T33, 4H464-AA; conditions: mean of both orientations
T33 chain: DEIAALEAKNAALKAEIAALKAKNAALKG

[36] = biological target: T34, 4H3049-AA
T34 chain: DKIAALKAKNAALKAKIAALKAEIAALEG

[37] = biological target: T35, 4H3782-AA; conditions: mean of both orientations
T35 chain: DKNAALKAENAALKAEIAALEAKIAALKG

[38] = biological target: T36, O13-AA; conditions: mean of both orientations
T36 chain: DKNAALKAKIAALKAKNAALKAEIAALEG

[39] = biological target: T37, 4H451-AA; conditions: mean of both orientations
T37 chain: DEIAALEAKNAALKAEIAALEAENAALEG

[40] = biological target: T38, APC3881-AA; conditions: mean of both orientations
T38 chain: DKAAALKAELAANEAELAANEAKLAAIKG

[41] = biological target: T39, APC2981-AA; conditions: mean of both orientations
T39 chain: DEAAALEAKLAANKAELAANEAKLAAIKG

[42] = biological target: T40, APC4100-AA; conditions: mean of both orientations
T40 chain: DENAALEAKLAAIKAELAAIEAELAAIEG

[43] = biological target: T41, APC2811-AA
T41 chain: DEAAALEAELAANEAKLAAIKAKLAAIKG

[44] = biological target: T42, APC4336-AA; conditions: mean of both orientations
T42 chain: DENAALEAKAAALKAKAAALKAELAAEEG

[45] = biological target: T43, APC3323-AA; conditions: mean of both orientations
T43 chain: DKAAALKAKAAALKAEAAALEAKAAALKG

[46] = biological target: T44, APC9141-AA; conditions: mean of both orientations
T44 chain: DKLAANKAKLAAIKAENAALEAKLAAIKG

[47] = biological target: T45, APC8516-AA; conditions: mean of both orientations
T45 chain: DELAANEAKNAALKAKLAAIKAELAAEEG

[48] = biological target: T46, APC3354-AA; conditions: mean of both orientations
T46 chain: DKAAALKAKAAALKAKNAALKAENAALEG

[49] = biological target: T47, APC9182-AA; conditions: mean of both orientations
T47 chain: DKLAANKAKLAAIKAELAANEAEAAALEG

[50] = biological target: T48, APC6088-AA; conditions: mean of both orientations
T48 chain: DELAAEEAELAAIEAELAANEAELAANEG

[51] = biological target: T49, APC5009-AA; conditions: mean of both orientations
T49 chain: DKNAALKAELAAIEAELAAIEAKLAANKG

[52] = biological target: T50, APC542-AA; conditions: mean of both orientations
T50 chain: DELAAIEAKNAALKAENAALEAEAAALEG

[53] = biological target: T51, APC5531-AA; conditions: mean of both orientations
T51 chain: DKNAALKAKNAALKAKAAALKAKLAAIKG

[54] = biological target: T52, APC9806-AA; conditions: mean of both orientations
T52 chain: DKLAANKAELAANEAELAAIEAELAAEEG

[55] = biological target: T53, APC8401-AA; conditions: mean of both orientations
T53 chain: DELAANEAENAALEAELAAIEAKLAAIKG

[56] = biological target: T54, APC9291-AA; conditions: mean of both orientations
T54 chain: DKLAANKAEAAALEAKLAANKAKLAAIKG

[57] = biological target: T55, APC3265-AA; conditions: mean of both orientations
T55 chain: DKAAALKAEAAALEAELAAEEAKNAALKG

[58] = biological target: T56, APC7524-AA; conditions: mean of both orientations
T56 chain: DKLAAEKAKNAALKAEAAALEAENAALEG

Sequence of 4H_GCN4 (chain, as listed by the source): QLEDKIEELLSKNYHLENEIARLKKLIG

interaction score [1]: 0.0606
interaction score [2]: -1.48
interaction score [3]: -0.00195
interaction score [4]: -1.01
interaction score [5]: -0.802
interaction score [6]: -0.754
interaction score [7]: 0.355
interaction score [8]: -0.416
interaction score [9]: 1.52
interaction score [10]: -1.55
interaction score [11]: -0.638
interaction score [12]: -1.15
interaction score [13]: -0.645
interaction score [14]: -0.09
interaction score [15]: -0.776
interaction score [16]: -0.0348
interaction score [17]: 1.1
interaction score [18]: -0.414
interaction score [19]: -1.06
interaction score [20]: 1.59
interaction score [21]: -1.67
interaction score [22]: -1.68
interaction score [23]: -0.69
interaction score [24]: -0.842
interaction score [25]: -2.02
interaction score [26]: 1.66
interaction score [27]: -1.8
interaction score [28]: 1.4
interaction score [29]: 1.63
interaction score [30]: 0.334
interaction score [31]: -0.0279
interaction score [32]: -1.42
interaction score [33]: -1.52
interaction score [34]: 1.67
interaction score [35]: 0.452
interaction score [36]: -0.619
interaction score [37]: 1.57
interaction score [38]: -1.55
interaction score [39]: -1.18
Binder: DKIAALKAKNAALKAKIAALKAEIAALEG [4H3049-AA]

interaction score [40]: -1.68
interaction score [41]: -1.57
interaction score [42]: 0.341
interaction score [43]: -0.415
interaction score [44]: -1.61
interaction score [45]: -1.68
interaction score [46]: -1.29
interaction score [47]: -1.65
interaction score [48]: -1.67
interaction score [49]: -1.35
interaction score [50]: -1.51
interaction score [51]: -0.812
interaction score [52]: -1.59
interaction score [53]: -1.88
interaction score [54]: -1.74
interaction score [55]: -1.58
interaction score [56]: -1.78
interaction score [57]: -1.3
interaction score [58]: -1.75
Binder: DEAAALEAELAANEAKLAAIKAKLAAIKG [APC2811-AA]

Source: article PMC10397247
